B1: NLV3 TCR beta chain (CDR3β only) (parent)
chain: ASSPTGGSPSPLH
B2: NLV3 TCR beta chain (CDR3β only) (parent)
chain: ASSPTGGSPSPLH
partner: NLCPMVATV

Variants of: B1
Experiment: T-Switch: Jurkat TCRβ−/− cells expressing a CDR3 saturation-mutagenesis library, stained with two peptide-HLA-A*02:01 tetramers (original and novel peptide) plus anti-CD3, FACS-sorted into four gates, gDNA sequenced
Details: with both tetramers (double-negative gate, binds neither): HLA-A*02:01 with … and with …, tetramers 1 µg/mL, 30 min on ice, SP, DP and SW gates expanded about 10 days between rounds ('two to three rounds of selection' in the Methods), gate DN: OPPOSITE: higher = more of the variant in the gate that binds neither peptide = LESS binding (or no expression; inferred). Fold enrichment of the CDR3 variant in one FACS gate of a two-tetram, unresolved parent, parent is a CDR3 fragment, scale: fold enrichment, numbering: sequential-on-construct, sequence starts at 1
In the case of […] (CDR3 as printed); P11S derived by comparing it with the table's wild-type CDR3 ASSPTGGSPSPLH, the enrichment is reported as 1.52. Work on […] (CDR3 as printed); S2N derived by comparing it with the table's wild-type CDR3 ASSPTGGSPSPLH yielded an enrichment of 0.879. […] (CDR3 as printed); S3Q derived by comparing it with the table's wild-type CDR3 ASSPTGGSPSPLH was tested, and the enrichment was 1.09. […] (CDR3 as printed); S8W derived by comparing it with the table's wild-type CDR3 ASSPTGGSPSPLH was tested, and the enrichment was 0.85. […] (CDR3 as printed); P11D derived by comparing it with the table's wild-type CDR3 ASSPTGGSPSPLH was tested, and the enrichment was 0.46. […] (CDR3 as printed); S8Y derived by comparing it with the table's wild-type CDR3 ASSPTGGSPSPLH gave an enrichment of 0.351. […] (CDR3 as printed); S2T derived by comparing it with the table's wild-type CDR3 ASSPTGGSPSPLH was tested, and the enrichment was 0.755. For […] (CDR3 as printed); P9N derived by comparing it with the table's wild-type CDR3 ASSPTGGSPSPLH, the enrichment was 1.65. […] (CDR3 as printed); S3W derived by comparing it with the table's wild-type CDR3 ASSPTGGSPSPLH gave an enrichment of 0.749. Variant […] (CDR3 as printed); S10N derived by comparing it with the table's wild-type CDR3 ASSPTGGSPSPLH has an enrichment of 1.13. […] (CDR3 as printed); S8T derived by comparing it with the table's wild-type CDR3 ASSPTGGSPSPLH was tested, and the enrichment was 1.42. Variant […] (CDR3 as printed); T5W derived by comparing it with the table's wild-type CDR3 ASSPTGGSPSPLH has an enrichment of 0. […] (CDR3 as printed); S2Y derived by comparing it with the table's wild-type CDR3 ASSPTGGSPSPLH was tested, and the enrichment was 0.769. For […] (CDR3 as printed); S3M derived by comparing it with the table's wild-type CDR3 ASSPTGGSPSPLH, the enrichment was 0.806. […] (CDR3 as printed); S8H derived by comparing it with the table's wild-type CDR3 ASSPTGGSPSPLH showed an enrichment of 0.901. With […] (CDR3 as printed); S2H derived by comparing it with the table's wild-type CDR3 ASSPTGGSPSPLH the enrichment was 0.777. In the case of […] (CDR3 as printed); P11G derived by comparing it with the table's wild-type CDR3 ASSPTGGSPSPLH, the enrichment is reported as 1.17. In the case of […] (CDR3 as printed); T5H derived by comparing it with the table's wild-type CDR3 ASSPTGGSPSPLH, the enrichment is reported as 0.879. […] (CDR3 as printed); S2P derived by comparing it with the table's wild-type CDR3 ASSPTGGSPSPLH gave an enrichment of 0.795. For […] (CDR3 as printed); T5N derived by comparing it with the table's wild-type CDR3 ASSPTGGSPSPLH, the enrichment was 0.924. […] (CDR3 as printed); S3Y derived by comparing it with the table's wild-type CDR3 ASSPTGGSPSPLH was tested, and the enrichment was 0.895. Variant […] (CDR3 as printed); S3P derived by comparing it with the table's wild-type CDR3 ASSPTGGSPSPLH has an enrichment of 0.64. […] (CDR3 as printed); S8D derived by comparing it with the table's wild-type CDR3 ASSPTGGSPSPLH gave an enrichment of 0.969.

Same assay, conditions: with both tetramers (double-positive gate): HLA-A*02:01 with … and with …, tetramers 1 µg/mL, 30 min on ice, SP, DP and SW gates expanded about 10 days between rounds ('two to three rounds of selection' in the Methods), gate DP: higher = more of the variant in the gate that binds both peptides. Fold enrichment of the CDR3 variant in one FACS gate of a two-tetramer stain. SP/DP/SW gates were expanded and re-sorted bef, unresolved parent, parent is a CDR3 fragment, scale: fold enrichment, numbering: sequential-on-construct, sequence starts at 1
Work on […] (CDR3 as printed); P11S derived by comparing it with the table's wild-type CDR3 ASSPTGGSPSPLH yielded an enrichment of 0. Variant […] (CDR3 as printed); S2N derived by comparing it with the table's wild-type CDR3 ASSPTGGSPSPLH has an enrichment of 0. In the case of […] (CDR3 as printed); S3Q derived by comparing it with the table's wild-type CDR3 ASSPTGGSPSPLH, the enrichment is reported as 0. […] (CDR3 as printed); S8W derived by comparing it with the table's wild-type CDR3 ASSPTGGSPSPLH was tested, and the enrichment was 0. Work on […] (CDR3 as printed); P11D derived by comparing it with the table's wild-type CDR3 ASSPTGGSPSPLH yielded an enrichment of 0. Variant […] (CDR3 as printed); S8Y derived by comparing it with the table's wild-type CDR3 ASSPTGGSPSPLH has an enrichment of 0. […] (CDR3 as printed); S2T derived by comparing it with the table's wild-type CDR3 ASSPTGGSPSPLH gave an enrichment of 0. Work on […] (CDR3 as printed); P9N derived by comparing it with the table's wild-type CDR3 ASSPTGGSPSPLH yielded an enrichment of 0. In the case of […] (CDR3 as printed); S3W derived by comparing it with the table's wild-type CDR3 ASSPTGGSPSPLH, the enrichment is reported as 0. […] (CDR3 as printed); S10N derived by comparing it with the table's wild-type CDR3 ASSPTGGSPSPLH was tested, and the enrichment was 0. With […] (CDR3 as printed); S8T derived by comparing it with the table's wild-type CDR3 ASSPTGGSPSPLH the enrichment was 0. […] (CDR3 as printed); T5W derived by comparing it with the table's wild-type CDR3 ASSPTGGSPSPLH gave an enrichment of 0. […] (CDR3 as printed); S2Y derived by comparing it with the table's wild-type CDR3 ASSPTGGSPSPLH gave an enrichment of 0. With […] (CDR3 as printed); S3M derived by comparing it with the table's wild-type CDR3 ASSPTGGSPSPLH the enrichment was 0. […] (CDR3 as printed); S8H derived by comparing it with the table's wild-type CDR3 ASSPTGGSPSPLH gave an enrichment of 0. Work on […] (CDR3 as printed); S2H derived by comparing it with the table's wild-type CDR3 ASSPTGGSPSPLH yielded an enrichment of 0. Work on […] (CDR3 as printed); P11G derived by comparing it with the table's wild-type CDR3 ASSPTGGSPSPLH yielded an enrichment of 0. For […] (CDR3 as printed); T5H derived by comparing it with the table's wild-type CDR3 ASSPTGGSPSPLH, the enrichment was 0. Variant […] (CDR3 as printed); S2P derived by comparing it with the table's wild-type CDR3 ASSPTGGSPSPLH has an enrichment of 0. For […] (CDR3 as printed); T5N derived by comparing it with the table's wild-type CDR3 ASSPTGGSPSPLH, the enrichment was 0. For […] (CDR3 as printed); S3Y derived by comparing it with the table's wild-type CDR3 ASSPTGGSPSPLH, the enrichment was 0. […] (CDR3 as printed); S3P derived by comparing it with the table's wild-type CDR3 ASSPTGGSPSPLH gave an enrichment of 0. With […] (CDR3 as printed); S8D derived by comparing it with the table's wild-type CDR3 ASSPTGGSPSPLH the enrichment was 0.

Variants of: B2
Experiment: as above
Details: with HLA-A*02:01 with peptide … (NLV 2-1, the novel peptide), tetramers 1 µg/mL, 30 min on ice, SP, DP and SW gates expanded about 10 days between rounds ('two to three rounds of selection' in the Methods), gate SW: higher = more of the variant in the gate that binds the novel peptide and not the original one = switched binding. Fold enrichment of the CDR3 variant in one FACS gate of a two-tetramer stain, unresolved parent, parent is a CDR3 fragment, scale: fold enrichment, numbering: sequential-on-construct, sequence starts at 1
[…] (CDR3 as printed); G6I derived by comparing it with the table's wild-type CDR3 ASSPTGGSPSPLH was tested, and the enrichment was 0. […] (CDR3 as printed); L12E derived by comparing it with the table's wild-type CDR3 ASSPTGGSPSPLH gave an enrichment of 0. […] (CDR3 as printed); P11V derived by comparing it with the table's wild-type CDR3 ASSPTGGSPSPLH was tested, and the enrichment was 0. Work on […] (CDR3 as printed); H13C derived by comparing it with the table's wild-type CDR3 ASSPTGGSPSPLH yielded an enrichment of 0.
